According to IntAct's records for PubMed 24255178:

B1: Serine/threonine-protein kinase 3 (Homo sapiens), Q13188 (parent)
chain: MEQPPAPKSKLKKLSEDSLTKQPEEVFDVLEKLGEGSYGSVFKAIHKESGQVVAIKQVPVESDLQEIIKEISIMQQCDSPYVVKYYGSYFKNTDLWIVMEYCGAGSVSDIIRLRNKTLIEDEIATILKSTLKGLEYLHFMRKIHRDIKAGNILLNTEGHAKLADFGVAGQLTDTMAKRNTVIGTPFWMAPEVIQEIGYNCVADIWSLGITSIEMAEGKPPYADIHPMRAIFMIPTNPPPTFRKPELWSDDFTDFVKKCLVKNPEQRATATQLLQHPFIKNAKPVSILRDLITEAMEIKAKRHEEQQRELEEEEENSDEDELDSHTMVKTSVESVGTMRATSTMSEGAQTMIEHNSTMLESDLGTMVINSEDEEEEDGTMKRNATSPQVQRPSFMDYFDKQDFKNKSHENCNQNMHEPFPMSKNVFPDNWKVPQDGDFDFLKNLSLEELQMRLKALDPMMEREIEELRQRYTAKRQPILDAMDAKKRRQQNF
partner: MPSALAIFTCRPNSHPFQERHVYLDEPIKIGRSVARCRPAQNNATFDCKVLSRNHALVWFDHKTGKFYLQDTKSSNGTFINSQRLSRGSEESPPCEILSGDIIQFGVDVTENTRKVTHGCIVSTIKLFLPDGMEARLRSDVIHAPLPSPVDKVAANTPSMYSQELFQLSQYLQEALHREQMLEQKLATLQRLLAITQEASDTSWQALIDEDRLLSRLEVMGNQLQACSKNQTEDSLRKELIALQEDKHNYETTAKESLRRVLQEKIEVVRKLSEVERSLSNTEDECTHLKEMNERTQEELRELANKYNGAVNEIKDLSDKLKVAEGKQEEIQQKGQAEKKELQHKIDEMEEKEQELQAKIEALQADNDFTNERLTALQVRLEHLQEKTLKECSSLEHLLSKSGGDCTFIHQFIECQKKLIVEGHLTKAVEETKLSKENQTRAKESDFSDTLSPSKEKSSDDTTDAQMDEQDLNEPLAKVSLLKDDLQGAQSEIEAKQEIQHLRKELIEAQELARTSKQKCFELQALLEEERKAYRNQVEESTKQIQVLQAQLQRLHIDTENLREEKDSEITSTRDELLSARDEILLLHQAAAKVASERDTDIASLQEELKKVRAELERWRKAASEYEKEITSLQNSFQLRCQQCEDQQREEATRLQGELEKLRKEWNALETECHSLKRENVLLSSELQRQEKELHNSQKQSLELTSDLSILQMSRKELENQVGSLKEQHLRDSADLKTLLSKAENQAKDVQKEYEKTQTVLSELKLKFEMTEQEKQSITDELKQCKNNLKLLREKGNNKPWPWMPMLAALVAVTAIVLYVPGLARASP
B2: Sarcolemmal membrane-associated protein (Homo sapiens), Q14BN4 (parent)
chain: B1 partner
partner: B1 chain
B3: Sarcolemmal membrane-associated protein (Homo sapiens), Q14BN4 (parent)
chain: B1 partner
partner: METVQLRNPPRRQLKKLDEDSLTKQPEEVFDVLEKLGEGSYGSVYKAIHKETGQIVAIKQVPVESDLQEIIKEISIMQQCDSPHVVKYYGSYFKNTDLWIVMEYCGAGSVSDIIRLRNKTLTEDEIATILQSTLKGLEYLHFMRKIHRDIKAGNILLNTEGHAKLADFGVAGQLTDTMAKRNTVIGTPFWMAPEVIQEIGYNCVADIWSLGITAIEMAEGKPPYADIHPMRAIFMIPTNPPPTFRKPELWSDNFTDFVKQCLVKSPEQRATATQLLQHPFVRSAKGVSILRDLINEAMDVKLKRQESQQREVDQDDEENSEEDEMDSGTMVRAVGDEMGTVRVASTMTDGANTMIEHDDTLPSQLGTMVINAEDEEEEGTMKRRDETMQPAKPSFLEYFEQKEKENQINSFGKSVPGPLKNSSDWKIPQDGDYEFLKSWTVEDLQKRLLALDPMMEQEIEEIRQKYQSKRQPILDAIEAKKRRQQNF

Variants of: B1
Conditions: with slmap_human SLMAP, Q14BN4

effect of a mutation on the interaction | Variant
decreasing interaction | MEQPPAPKSKLKKLSEDSLTKQPEEVFDVLEKLGEGSYGSVFKAIHKESGQVVAIKQVPVESDLQEIIKEISIMQQCDSPYVVKYYGSYFKNTDLWIVMEYCGAGSVSDIIRLRNKTLIEDEIATILKSTLKGLEYLHFMRKIHRDIKAGNILLNTEGHAKLADFGVAGQLTDTMAKRNAVIGTPFWMAPEVIQEIGYNCVADIWSLGITSIEMAEGKPPYADIHPMRAIFMIPTNPPPTFRKPELWSDDFTDFVKKCLVKNPEQRATATQLLQHPFIKNAKPVSILRDLITEAMEIKAKRHEEQQRELEEEEENSDEDELDSHTMVKTSVESVGTMRATSTMSEGAQTMIEHNSTMLESDLGTMVINSEDEEEEDGTMKRNATSPQVQRPSFMDYFDKQDFKNKSHENCNQNMHEPFPMSKNVFPDNWKVPQDGDFDFLKNLSLEELQMRLKALDPMMEREIEELRQRYTAKRQPILDAMDAKKRRQQNF [T180A]

Variants of: B2
Conditions: with stk3_human STK3, Q13188

effect of a mutation on the interaction | Variant
decreasing interaction | R32A
decreasing interaction | H55A

Variants of: B3
Conditions: with stk4_human STK4, Q13043

effect of a mutation on the interaction | Variant
decreasing interaction | R32A
decreasing interaction | H55A
